Results on two substances are retold here after US11726088B2, “Sirtuin 4 (SIRT4) lipoamidase activity and uses thereof” (THE TRUSTEES OF PRINCETON UNIVERSITY, priority 2014, dated 2023).

Primed or numbered codes have the meaning given here. Ends that are not written are not given here. * marks the point of attachment. lipoyl″ = O=C(CCCC[C@@H]1CCSS1)* Where only a bound is given, the exact number is not on record here.

Data set [1] deals with T1, SIRT4 (Homo sapiens, UniProt Q9Y6E7).
T1 construct: 6xHis (followed by human rhinovirus 3C protease site) (N); made in house; host or cells: E. coli BL21(DE3), co-expressed with GroEL and GroES
T1 sequence (Q9Y6E7 33-314): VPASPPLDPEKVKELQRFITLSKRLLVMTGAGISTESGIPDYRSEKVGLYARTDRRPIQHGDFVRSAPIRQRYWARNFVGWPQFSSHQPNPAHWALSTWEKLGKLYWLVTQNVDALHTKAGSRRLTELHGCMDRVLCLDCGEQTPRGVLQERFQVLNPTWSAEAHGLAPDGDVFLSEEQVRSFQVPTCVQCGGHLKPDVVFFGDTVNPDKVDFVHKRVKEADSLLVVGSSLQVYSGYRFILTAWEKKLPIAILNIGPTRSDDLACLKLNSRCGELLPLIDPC
Description: HPLC-based SIRT4 kinetics assays (steady-state, acyl-modified peptide substrates). It counts as biochemical. From the text: Recombinant SIRT4 protein expression and purification. N-terminally truncated human Sirt4 (33-314 of SEQ ID NO: 2) was cloned into a derivative of pET-15b containing a human rhinovirus 3C Protease cleavage site in place of its thrombin cleavage site. 6×His-Sirt4 was co-expressed with GroEL and GroES in BL21(DE3) E. coli in order to promote proper protein folding. Protein was purified using immobilized-metal affinity chromatography (IMAC) followed by anion-exchange chromatography to remove associated folding chaperones. For some experiments the His-tag was removed using 3C protease. Protein was concentrated, snap frozen in N2(l), and stored at −80° C. HPLC-based SIRT4 kinetics assays. SIRT4 kinetic assays were essentially performed as described by others^3,4. Briefly, enzyme reactions (20 μL) were performed in 50 mM Tris, pH 8.0, containing 5 μM recombinant SIRT4 and varying concentrations (0 to 2500 μM) of H3K9- or DLAT-modified peptides with either acetyl-lysine, biotinyl-lysine, or lipoyl-lysine. Reactions were initiated by addition of NAD (1 mM) and incubated at 25° C. for between 30-120 min, depending on substrate-specific reaction rates and to maintain steady-state conditions. Reactions were quenched with formic acid to a final concentration of 0.5% (v/v) and analyzed by HPLC-UV detection (Ultimate 3000 RSLC/VWD-3400). Substrate and product were separated by reverse-phase chromatography (Acclaim PepMap RSLC, 75 μm×15 cm) at 0.75 μL/min. Product concentration was measured by peak integration of A280 signals. Initial reaction velocities were determined in at least duplicate and fit to a modified Briggs-Haldane equation, which substituted kcat×[SIRT4] for Vmax and allowed determination of kinetic parameters, kcat, Km and kcat/Km and their associated error (±SEM), using GraphPad Prism 5. SIRT4's catalytic efficiency towards the various acyl-modified peptide substrates was assessed (Table 1 below).

The target in data set [2] is T2, SIRT3 (Homo sapiens, UniProt Q9NTG7).
T2 construct: purchased Sigma SRP0117-100UG
T2 sequence (Q9NTG7 1-399): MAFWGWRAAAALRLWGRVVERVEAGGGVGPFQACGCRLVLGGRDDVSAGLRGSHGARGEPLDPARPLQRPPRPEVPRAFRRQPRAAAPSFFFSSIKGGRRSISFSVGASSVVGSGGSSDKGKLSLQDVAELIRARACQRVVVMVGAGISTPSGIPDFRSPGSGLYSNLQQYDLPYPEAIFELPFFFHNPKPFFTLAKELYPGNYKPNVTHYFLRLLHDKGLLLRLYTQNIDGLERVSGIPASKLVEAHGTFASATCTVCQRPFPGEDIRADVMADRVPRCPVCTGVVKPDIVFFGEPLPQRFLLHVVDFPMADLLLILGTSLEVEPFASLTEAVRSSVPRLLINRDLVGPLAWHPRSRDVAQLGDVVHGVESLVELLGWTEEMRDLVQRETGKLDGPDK
Put plainly: Steady-state kinetic analysis of SIRT3 with DLAT K259 peptides. Format: biochemical.

For data set [3], the target named is T1, SIRT4. Put plainly: LC-MS-based in vitro peptide deacylation assay. Format: biochemical. The conditions noted are these: 5 μM SIRT4, 10 uM peptide, with NAD, 1 hr at 37° C. The text has this:
Recombinant SIRT4 protein expression and purification. N-terminally truncated human Sirt4 (33-314 of SEQ ID NO: 2) was cloned into a derivative of pET-15b containing a human rhinovirus 3C Protease cleavage site in place of its thrombin cleavage site. 6×His-Sirt4 was co-expressed with GroEL and GroES in BL21(DE3) E. coli in order to promote proper protein folding. Protein was purified using immobilized-metal affinity chromatography (IMAC) followed by anion-exchange chromatography to remove associated folding chaperones. For some experiments the His-tag was removed using 3C protease. Protein was concentrated, snap frozen in N2(l), and stored at −80° C.
LC-MS-based in vitro peptide deacylation assay. The ability of SIRT4 to hydrolyze various acyl-lysine modifications was measured using LC-MS. In 20 μL reaction volume, 10 uM peptide (lipoyl-, biotinyl-, or acetyl-lysine) was incubated with increasing concentrations of SIRT4 (0.5 μM, 2.5 μM, and 5 μM), with or without NAD, in 50 mM TrisHCl, pH 8, 137 mM NaCl, 2.7 mM KCl and 1 mM MgCl2, for 1 hr at 37° C. Reactions were quenched with 25 μL of 2% TFA and an internal control peptide was spiked in to monitor for run-to-run variability. Reaction products were desalted, eluted, concentrated and analyzed by nano-LC-MS/MS, as above, but altered LC gradients. A 30 min linear gradient from 4-40% B was used for all peptides, except for lipoyl-lysine biological peptides, which used a 12-70% B linear gradient. Data were imported into Skyline software (version 2.1) to obtain precursor extracted ion chromatographams (XICs) using the following settings: Isotope Count, 3; precursor mass analyzer, Orbitrap; Resolving power, 60,000 @ 400 Th. The retention times of substrate (modified) and product (unmodified) peptides were confirmed by fragmentation spectra and peak integration boundaries were manually inspected. Three biological replicates were analyzed for each reaction.
The lipoamide cofactor bound to E2 (transferase enzymes) is required for dehydrogenase complex activity (FIG. 1b). Given that other mitochondrial SIRTs can hydrolyze various […] group lysine modifications^3,4 and that all PDHC components were present in our SIRT4 isolation, we speculated that E2 dehydrogenase components may be biological substrates of SIRT4, and that SIRT4 may directly hydrolyze the lipoamid modification. To test this we screened the in vitro activity of recombinant SIRT4 against differentially-modified synthetic peptides (FIG. 10). Firstly, SIRT4 activity towards acyl-modified H3K9 peptides (SEQ ID NOs: 3-5) was measured using a liquid-chromatography (LC)-MS-based deacylation assay. SIRT4 was incubated with H3K9 peptides modified with acetyl-lysine (SEQ ID NO: 5), biotinyl-lysine (SEQ ID NO: 4) or lipoyl-lysine (SEQ ID NO: 3), in the presence or absence of NAD. Following reaction, the remaining unreacted substrates and newly generated unmodified peptides were identified and quantified by LC-MS (FIG. 2A, 2G-2I and FIG. 5). […] To compare the relative preference of SIRT4 for these different substrates, we used extracted ion chromatograms to quantify unreacted substrate (S) and product (P) amounts from all reactions, and represented the percentage of unmodified peptide generated (FIG. 2H). […] The relative amount of unmodified product generated using 5 μM SIRT4 was 11% (lipoyl—SEQ ID NO: 3), 3% (biotinyl—SEQ ID NO: 4) and 0.3% (acetyl—[…]) (FIG. 2B and FIG. 2H, H3K9 substrates). […]

In data set [4] the target is T3, SIRT5 (Homo sapiens, UniProt Q9NXA8).
T3 construct: purchased Sigma SRP0119-100UG
T3 sequence (Q9NXA8 37-310): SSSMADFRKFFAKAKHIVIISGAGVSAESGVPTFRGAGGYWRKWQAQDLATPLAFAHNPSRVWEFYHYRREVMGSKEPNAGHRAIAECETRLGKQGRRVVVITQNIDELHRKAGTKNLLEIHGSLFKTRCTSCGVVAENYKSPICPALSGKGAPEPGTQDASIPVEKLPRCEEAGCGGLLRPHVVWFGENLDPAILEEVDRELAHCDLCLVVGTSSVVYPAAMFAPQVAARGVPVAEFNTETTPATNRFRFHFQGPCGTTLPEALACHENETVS
Put plainly: Kinetic analysis of SIRT5 with DLAT K259 peptides. It counts as biochemical.

The test system of data set [5] is SIRT4 mRNA. Put plainly: SIRT4 knock-down efficiency by qRT-PCR in MRC5 cells stably expressing shRNA. It counts as cell-based, human. The conditions noted are these: MRC5 fibroblasts, mRNA level by qPCR; listed as construct #5. The text has this:
SIRT4 shRNA expression. pLKO.1-puro vectors containing either non-targeting control shRNA or SIRT4-targeting shRNA were purchased from Sigma-Aldrich and are listed in FIG. 11. To generate MRC5 cells stably expressing each of the shRNA constructs, HEK293T cells were co-transfected with appropriate pLKO.1 vector, pCMVΔR8.2 (Addgene, plasmid #12263) and pMD2.G (Addgene, plasmid #12259) using FuGENE 6. Media containing lentivirus particles were used to transduce MRC5 cells, which were subsequently selected with 2 μg/mL puromycin (InvivoGen, cat. #ant-pr-1). Knockdown efficiency was measured by qRT-PCR and western blotting.
qRT-PCR analysis. For qRT-PCR analysis, MRC5 cells were collected and washed with PBS. Total RNA was isolated from cell pellets using RNeasy Mini Kit (Qiagen, cat. #74104) and the concentration/purity determined by measuring the absorbance 260/280 nm using NanoDrop Spectrophotometer (Thermo Fisher Scientific). For cDNA synthesis, 1 μg of RNA from each sample was first treated with DNase I (Life Technologies, cat. #18068015) and then used as a template in the RETROscript kit (Life Technologies, cat. #AM1710). The cDNAs were mixed with appropriate primers listed in FIG. 12 and Power SYBR green PCR master mix (Life Technologies, cat. #4368706) for qRT-PCR on ABI 7900HT Real-Time Thermocycler (Applied Biosystems). […]
A general note: In qPCR the cycle at which signal appears reflects the starting amount.

Where [6] appears, read: SIRT4 enzyme concentration = 5 μM, NAD 1 mM, 25° C.

Usually Km stands for the concentration of substrate that gives half-maximal velocity. Broadly, the kcat is the number of substrate molecules converted per active site and unit of time at saturation.

As to “DLAT K259 Lipoyl: synthetic DLAT K259 peptide with lipoyl-lysine (SEQ ID NO: 8) (EIETDK(lipoyl″)ATIGWW)”, in data set [1] (setting [6]), the Km was 239 ± 51 µM and the kcat amounted to 0.0016 ± 0.0001 s⁻¹. Moreover, the “increase in efficiency compared to H3K9 lipoyl” value in data set [1] (another experiment (Table 1)) worked out at 3.3 fold. The “increased efficiency compared to H3K9 lipoyl” value in data set [1] (first experiment) amounted to 3.5 fold. The “efficiency of hydrolysis by SIRT4, fold more than deacetylation of MCD” value in data set [1] (versus MCD acetyl) was approximately 1270 fold. In data set [2], the “SIRT3 efficiency, fold lower than for DLAT acetyl” value stood at 13 fold and the SIRT3 enzymatic activity entry is “some enzymatic activity”. Also, the “relative amount of unmodified product generated” value in data set [3] is 33%. The SIRT5 activity entry in data set [4] is “no activity was detected”.
In turn, “shSIRT4 #5: SIRT4-targeting shRNA construct in pLKO.1-puro vector, purchased from Sigma-Aldrich (DNA CCGGACAGGGACTTTCACTTGAATCCTCGAGGATTCAAGTGAAAGTCCCTGTTTTTTG)” displayed an SIRT4 knock-down in data set [5] of more than 80%.
